For assay [1], the target named is HRP-labelled Concavalin A (UniProt P02866). The experiment in a line: capillary displacement of HRP-labelled Concavalin A from immobilised yeast mannoprotein; platform of Example 4; HRP substrate, spectrophotometer.
The target is the same in assay [2]. The experiment in a line: capillary displacement of HRP-labelled Concavalin A from immobilised yeast mannoprotein; platform of Example 3; HRP substrate, spectrophotometer.
Assay [3] has the same target. The experiment in a line: capillary displacement of HRP-labelled Concavalin A from immobilised yeast mannoprotein; platform of Example 2; HRP substrate, spectrophotometer.

Chain of UniProt P02866 (P02866 30-281 limits assumed): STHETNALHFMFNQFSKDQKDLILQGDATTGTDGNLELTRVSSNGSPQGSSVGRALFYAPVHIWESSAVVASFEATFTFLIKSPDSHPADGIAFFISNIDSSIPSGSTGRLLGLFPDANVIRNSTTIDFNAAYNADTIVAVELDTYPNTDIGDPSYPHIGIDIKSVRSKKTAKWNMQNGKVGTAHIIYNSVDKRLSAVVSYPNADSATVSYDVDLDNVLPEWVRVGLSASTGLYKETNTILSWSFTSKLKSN

Turning to yeast mannoprotein, the absorbance at 446-456 nm (absorbance (446 nm)) in assay [1] came out at 2.5. In assay [2], the absorbance at 446-456 nm (absorbance (448.5 nm)) worked out at 2.7.
“polystyrene beads with immobilised yeast mannoprotein” gave an absorbance at 446-456 nm (absorbance (456 nm)) in assay [3] of 3. In addition, the absorbance at 446-456 nm (absorbance (446 nm)) in assay [1] was above 4; in assay [2] it was 2.22.

For the origin of these results see patent US9696303.
